Assay results taken from US20110190196A1 (University of California, published 2011).

Legend:
[1] = molecular target: T1, ATP-binding cassette transporter A1 (ABCA1) (UniProt P41233 1-2261, limits assumed); assay: cell-based or functional assay
[2] = molecular target: T1, ATP-binding cassette transporter A1 …; assay: cell-based or functional assay; remark: listed apart in the source

T1 sequence (P41233 whole entry): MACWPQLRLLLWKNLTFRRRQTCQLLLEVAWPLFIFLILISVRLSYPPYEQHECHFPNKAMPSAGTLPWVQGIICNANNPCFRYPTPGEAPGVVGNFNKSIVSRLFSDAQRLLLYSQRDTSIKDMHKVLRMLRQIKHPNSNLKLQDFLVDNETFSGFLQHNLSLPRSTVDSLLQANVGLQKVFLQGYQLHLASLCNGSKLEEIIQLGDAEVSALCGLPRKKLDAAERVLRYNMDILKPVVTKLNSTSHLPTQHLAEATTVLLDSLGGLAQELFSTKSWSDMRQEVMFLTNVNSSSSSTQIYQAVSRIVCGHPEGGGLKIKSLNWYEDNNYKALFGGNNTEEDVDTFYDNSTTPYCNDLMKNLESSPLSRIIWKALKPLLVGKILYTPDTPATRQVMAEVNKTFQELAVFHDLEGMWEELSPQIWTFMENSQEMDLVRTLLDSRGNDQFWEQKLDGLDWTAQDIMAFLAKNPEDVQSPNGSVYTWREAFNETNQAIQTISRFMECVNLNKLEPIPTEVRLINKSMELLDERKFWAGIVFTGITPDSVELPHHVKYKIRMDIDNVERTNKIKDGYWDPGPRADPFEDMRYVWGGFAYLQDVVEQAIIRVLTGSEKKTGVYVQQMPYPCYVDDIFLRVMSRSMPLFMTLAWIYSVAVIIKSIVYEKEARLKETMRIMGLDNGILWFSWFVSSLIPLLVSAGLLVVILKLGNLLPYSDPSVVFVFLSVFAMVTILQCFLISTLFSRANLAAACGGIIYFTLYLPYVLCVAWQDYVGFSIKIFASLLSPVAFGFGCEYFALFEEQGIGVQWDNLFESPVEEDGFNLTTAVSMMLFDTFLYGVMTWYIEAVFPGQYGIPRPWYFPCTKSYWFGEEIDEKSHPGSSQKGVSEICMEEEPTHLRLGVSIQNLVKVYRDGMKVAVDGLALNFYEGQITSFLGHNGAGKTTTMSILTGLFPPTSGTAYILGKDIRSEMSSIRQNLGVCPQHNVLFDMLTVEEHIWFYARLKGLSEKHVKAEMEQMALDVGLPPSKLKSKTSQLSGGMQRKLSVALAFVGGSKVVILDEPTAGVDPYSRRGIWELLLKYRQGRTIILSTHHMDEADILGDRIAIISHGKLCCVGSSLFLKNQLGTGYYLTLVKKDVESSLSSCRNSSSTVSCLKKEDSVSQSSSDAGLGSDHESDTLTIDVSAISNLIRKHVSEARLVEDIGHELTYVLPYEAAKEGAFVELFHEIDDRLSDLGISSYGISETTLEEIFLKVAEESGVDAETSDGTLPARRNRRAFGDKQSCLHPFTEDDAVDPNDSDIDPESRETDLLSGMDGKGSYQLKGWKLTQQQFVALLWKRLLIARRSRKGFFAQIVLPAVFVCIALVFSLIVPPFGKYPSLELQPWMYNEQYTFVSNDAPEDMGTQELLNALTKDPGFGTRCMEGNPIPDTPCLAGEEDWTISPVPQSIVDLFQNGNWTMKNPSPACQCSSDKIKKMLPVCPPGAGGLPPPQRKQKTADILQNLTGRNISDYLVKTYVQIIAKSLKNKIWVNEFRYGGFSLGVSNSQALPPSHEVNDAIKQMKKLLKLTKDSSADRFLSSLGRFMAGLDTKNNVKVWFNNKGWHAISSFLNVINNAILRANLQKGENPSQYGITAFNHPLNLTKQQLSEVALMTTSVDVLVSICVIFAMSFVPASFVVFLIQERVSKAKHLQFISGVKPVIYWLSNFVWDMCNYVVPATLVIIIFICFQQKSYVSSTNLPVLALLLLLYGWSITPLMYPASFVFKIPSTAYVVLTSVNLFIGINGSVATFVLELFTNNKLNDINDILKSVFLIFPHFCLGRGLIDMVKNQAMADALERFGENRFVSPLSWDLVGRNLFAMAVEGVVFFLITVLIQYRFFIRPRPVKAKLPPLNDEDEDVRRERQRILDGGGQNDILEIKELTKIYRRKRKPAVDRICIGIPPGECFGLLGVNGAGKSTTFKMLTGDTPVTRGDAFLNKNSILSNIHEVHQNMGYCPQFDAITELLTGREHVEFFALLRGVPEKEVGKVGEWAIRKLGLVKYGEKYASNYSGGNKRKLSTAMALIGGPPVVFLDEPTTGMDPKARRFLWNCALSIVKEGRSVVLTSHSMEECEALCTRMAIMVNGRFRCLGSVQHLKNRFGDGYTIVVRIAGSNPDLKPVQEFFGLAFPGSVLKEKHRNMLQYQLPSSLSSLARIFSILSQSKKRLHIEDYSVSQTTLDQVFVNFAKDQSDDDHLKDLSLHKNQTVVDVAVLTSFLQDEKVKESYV

Binder | % cholesterol efflux/8 hours, +cAMP [1] [%] | % cholesterol efflux/8 hours, -cAMP [1] [%] | % cholesterol efflux/4 hours at 0.1 µg/ml [2] [%] | % cholesterol efflux/4 hours at 0.3 µg/ml [2] [%] | % cholesterol efflux/4 hours at 1.0 µg/ml [2] [%] | % cholesterol efflux/4 hours at 3.0 µg/ml [2] [%] | % cholesterol efflux/4 hours at 10 µg/ml [2] [%] | % cholesterol efflux/4 hours at 30 µg/ml [2] [%]
EVREKLEAWFELFREFLERF [N965-7] | 4.03 | 1.5 | 0.03 | 0.3 | 1.39 | 4.94 | 3.65 | 2.66
EVREKLEAWFELFREFLERFL [N965-6] | 6.18 | 3.15 | 0.11 | 0.49 | 1.59 | 1.98 | 2.22 | 2.75
EVREKLEAWFELFREFLERFLS [N965-5] | 5.52 | 2.91 | 0.12 | 0.9 | 2.13 | 4.89 | 4.06 | 3.82
EVREKLEAWFELFREFLERFKS [N965-4] | 4.76 | 1.52 | 0.29 | 0.67 | 2.7 | 4.72 | 4 | 2.94
ELREKLEAWRELFEEFFARFLS [N965-9] | 2.94 | 1.06 | 0.03 | 0.41 | 0.72 | 2.45 | 1.77 | 1.41
EVREKLEAWFELFREFAERFLS [N965-3] | 3.85 | 1.45 | 0.23 | 0.47 | 1.06 | 3.48 | 3.05 | 2.53
EVREKLEAWFELFREFAERFKS [N965-2] | 6.97 | 1.28 | 0 | 0.13 | 0.01 | 2.23 | 5.96 | 3.98
